# Measurements reported in the DeepSol protein solubility set.
# Assay: soluble on expression in E. coli; label from the status in PepcDB or PDB records
row,Sequence,soluble on expression in E. coli
1,MSLSFQMKYDIRLRFEVEGIVEKTDVIGAIFGQTENLFGDEFDLRELQDKGRLGRIIVEVKTKGGKSEGEIIIPSNLDRIETALIAAMVESVDKVGPYNSKFELIEIEDIRAEKLKKIIERAKGILSSWSKEKSLDIKEVINEISSAVKVGEITEYGPERLPAGPDVDKDPNLIIVEGRADVINLLRYGYKNVIAVEGATSRIPETLINLSKMKKTVIAFLDGDHGGDLILKELLSNNVKIDFVARAPIGREVEELTGKEIAKALSNMMPLTQYLKKVQEAEQAIAKNVIAKEEKPIQSETTQQVVQITLPQNILEEIKKLPGTLEGVLYDNNWNLIEKVQVRDIIPKLEAYEDNKVAYIIFDGVITQRLLDLASQKNIKMIIGARIGGINKRPQNVDILTFTDIISSEGHHHHHH,soluble
2,GPHMASAEEKLEKKLELDPNCKEPLQVLPPTVVDQIRLWQLELDRVITYEGSLYSDFETSQEYNLLSKYAQDIGVLLWKDDKKKKFFISKEGNSQVLDFAKRKLKKKQ,soluble
3,MGSDKIHHHHHHMREAMYWKPLGDGRVRCELCPLRCIIDEGKRGSCKIRINKGGKLYTLNYGKVSSIALDPIEKKPLFHFWPGSCALSIGTVGCNMHCKHCQNWEISQADESFPYLQDATPEAIVSLAKHYECESIAYTYNEPTIWYEFVLDTAKLARKEGLNNILVTNGYINEEPFRELAPYIDAMNIDIKAFDDKFYMKIASVPSGEPSRRIAEIAKKEFKIHVELTYLIIPTLNDKEEEIREFARWVVENLGDDTPVHFSRFFPHYKLLNLPPTPIETLEKAYKIAKEEGLKFVYLGNVPGHPGENTYCPSCGKLLIERWGFDIIRYDIVDGKCKYCGEKIPIVGKYQKKKYRGMWW,not soluble
4,MGHHHHHHSHMQNEKETMQSLNDRLASYLDRVRSLETENRRLESKIREHLEKKGPQVRDWSHYFKIIEDLRAQIFANTVDNARIVLQIDNARLAADDFRVKYETELAMRQSVENDIHGLRKVIDDTNITRLQLETEIEALKEELLFMKKNHEEEVKGLQAQIASSGLTVEVDAPKSQDLAKIMADIRAQYDELARKNREELDKYWSQQIEESTTVVTTQSAEVGAAETTLTELRRTVQSLEIDLDSMRNLKASLENSLREVEARYALQMEQLNGILLHLESELAQTRAEGQRQAQEYEALLNIKVKLEAEIATYRRLLEDGEDFNLGDALDSSNSMQTIQKTTTRRIVDGKVVSETNDTKVLRH,soluble
5,MSLIKMIALDLDETLLNTDKTISEENATALRQLHEAGIKIVLCTGRPINAIWHYLEQLGLTTDDDYTITFNGALVIQNSTKEALAQSGLSRNDFEPLHAFAAANHYPMDVLDFDQVYPIADLTPSVYEQMLKAPMKFIPTAFADLPDQLFSKAVMATDAAILDQVVAKLTPELTKLYHVVRSQPKILEFLAADMDKAVGLGQLLTHFGWDFSDLMAFGDAENDLGMIKAAGDGVAMQNGQPAVKAAANHQTPVDNNHAGVAAYLQHVFPELLGEGHHHHHH,soluble
6,MTLFEPSTSGNRMGYRGSSNSSSGVGSGGSGSLMTQSIGGPNKHLSASHSTLNTASTHDMMHSKIPKSPSNESLSRSHTSSSGGSQGGHNSNSGSNSGFRPEDAVQTFGAKLVPFEKNEIYNYTRVFFVGSHAKKQAGVIGGANNGGYDDENGSYQLVVHDHIAYRYEVLKVIGKGSFGQVIKAFDHKYQQYVALKLVRNEKRFHRQADEEIRILDHLRRQDSDGTHNIIHMLDYFNFRNHKCITFELLSINLYELIKRNKFQGFSLMLVRKFAYSMLLCLDLLQKNRLIHCDLKPENVLLKQQGRSGIKVIDFGSSCFDDQRIYTYIQSRFYRAPEVILGTKYGMPIDMWSLGCILAELLTGYPLLPGEDENDQLALIIELLGMPPPKSLETAKRARTFITSKGYPRYCTATSMPDGSVVLAGARSKRGKMRGPPASRSWSTALKNMGDELFVDFLKRCLDWDPETRMTPAQALKHKWLRRRLPNPPRDGLESMGGLADHEVCFIIF,not soluble
7,VQVLRLGSVGPDVKLAQSLLNKIGYPVGAVDGIYGTRTRQAVIAFQRNNGLVADGIVGPATWSVFEQFLRGYAIYYVRPGDTLYNIAGRFYTSVNSIVTANPGINPNVINIGQRLVVPYGIDVVFTDIDYTYEIMERDIQGLKARYPFLETGVAGTSVLGRNLYYLRLGTGPRQVFYNAAHHAIEWITTVLLMKFAENFLKAYSTGSRIRGYNVREIWNQSSIYIVPMVNPDGVDLVLNGLSPTNPYYADLLRWNTTGRPFSQVWSANIRGVDLNRNYPASWEEAKAQEEALGIFGPGPTRYGGPYPLSEPESSAMVSFTRTHDFRLALAYHSQGRVIYWNYLNLAPPESLTIANAFARVSGYIVLDVPYEAAYAGYKDWFIQEYRRPGFTIEVGLGQNPLPISQFNTIYNDNEEILLLASLI,not soluble
8,MDIYVCTVCGYEYDPAKGDPDSGIKPGTKFEDLPDDWACPVCGASKDAFEKQ,soluble
9,MGSDKIHHHHHHMWEIDQVRQGIVKNQIPSVNLWYGEERFFIQEALQLLKNSYLAQDPSGSGIEILSGKSTGPEQIVEIANTVSFFGGKLIIVEDIPYFQDGQGDALEPFFAYFENPNPGTCLVFLAQSVNRGRKFFKAIEKKGSILEFVSPKRQQEWSAWLDRELAARGKTMKPQVKALFLEWGGHQVGALSQELDKLALFVEGKEIRTEDVRSLVPQAVEATVFELLDAVAARSSKEAVQKLQQVLRQEHSLKVLTLLSRQVRLLLGARAMRQQGRGAEEAPRLLGIKPYEAQKIWQKAAQLTWEQLSWALRECLETDVAIKTGKGEPEFLLELMVVKFCEM,not soluble
10,MVAQNPTSISSGGRKQPQKQDKVQKKQLKKIYVVKIKRIPFGFFEKELLGYFRQFGNVLRIRVARNRRTGNHKGWAYVGFDNKAVAEIAAESMNGYLMFEQRLGCTVMKPELIPKAMRHGPLLVMRPSYLGIAKKDTIARNNTTGKNDVINAKKRVQNLNKTLKKLQNMGINYDFSVSGTPRTPLKKVIDNEVQFISDVTPKSTTPKIVKAATPKAATPKAVTPKQATPKVSTPVTKKVVIKTPKTEKPEPKQFTPKTRAGKKAAAAATPQAKSTLSNTILKSVAASARPAAVEKKTLRSRGKKKSL,soluble
11,MPMPSEKTLVIIPTYNELENLPLITGRVRKANPNVDILIVDDNSPDGTGEAADALAASDSHIKVLHREGKGGLCGAYVAGFQWGLERDYTVLCEMDADGSHAPEQLHLLLAQVDNGADLVIGSRYVPGGKVVNWPKNRWVLSKGGNIYISLALGAGLSDMTAGYRAFRREVLETVDLNELSNAGYIFQVDMAWRVIQLGFDVREVPITFTEREIGESKLDGSFVKDSLLEVTKWGIHHRKEQITNLYTESSRLIRHEISSFRKKHLI,not soluble
12,MDLSGVKKKSLLGVKENNKKSSTRAPSPTKRKDRSDEKSKDRSKDKGATKESSEKDRGRDKTRKRRSASSGSSSTRSRSSSTSSSGSSTSTGSSSGSSSSSASSRSGSSSTSRSSSSSSSSGSPSPSRRRHDNRRRSRSKSKPPKRDEKERKRRSPSPKPTKVHIGRLTRNVTKDHIMEIFSTYGKIKMIDMPVERMHPHLSKGYAYVEFENPDEAEKALKHMDGGQIDGQEITATAVLAPWPRPPPRRFSPPRRMLPPPPMWRRSPPRMRRRSRSPRRRSPVRRRSRSPGRRRHRSRSSSNSSR,soluble
13,MAVLCGVCGIKEFKYKCPRCLVQTCSLECSKKHKTRDNCSGQTHDPKEYISSEALKQADDDKHERNAYVQRDYNYLTQLKRMVHVQKMDARMKNKRVLGPVGGHNSNFKKRRYDIDEDDRDSTECQRIIRRGVNCLMLPKGMQRSSQNRSKWDKTMDLFVWSVEWILCPMQEKGEKKELFKHVSHRIKETDFLVQGMGKNVFQKCCEFYRLAGTSSCIEGEDGSETKEERTQILQKSGLKFYTKTFPYNTTHIMDSKKLVELAIHEKCIGELLKNTTVIEFPTIFVAMTEADLPEGYEVLHQEPRPLEHTSTLNKFIDNAREEEDAEEDSQPTEEPVQKETQDASDSDSDSDDDYNPGLSMDFLTA,not soluble
14,MWPLALVIASLTLALSGGVSQESSKVLNTNGTSGFLPGGYTCFPHSQPWQAALLVQGRLLCGGVLVHPKWVLTAAHCLKEGLKVYLGKHALGRVEAGEQVREVVHSIPHPEYRRSPTHLNHDHDIMLLELQSPVQLTGYIQTLPLSHNNRLTPGTTCRVSGWGTTTSPQVNYPKTLQCANIQLRSDEECRQVYPGKITDNMLCAGTKEGGKDSCEGDSGGPLVCNRTLYGIVSWGDFPCGQPDRPGVYTRVSRYVLWIRETIRKYETQQQKWLKGPQ,soluble
